This passage reports Kd results from PMC6559209.

For the test, the target named is YlHD, hydrophilic domain of the Yarrowia lipolytica group 3 LEA protein (Yarrowia lipolytica). The experiment in a line: MST; HD labelled with RED-NHS at 2 uM; label-free LDH titrated, diluted from 71 uM; binding buffer 20 mM HEPES, 150 mM KCl, pH 7.4 (the legend says phosphate buffer); normal conditions; Monolith NT.115, 20% LED, 60% MST power.

For lactate dehydrogenase (LDH) (enzyme), the Kd (usually a measure of binding affinity in units of concentration) came out at 5.03 µM.
